Reference: a protein production outcome set (Wang et al. 2014)

Assay: label from the status in PepcDB records

| Sequence | protein production |
| --- | --- |
| MSLSQNAPKSKGIKREELKKQYEDVEDEEEIGSDDDLTRGKRRKTEKEKQKLEESELVEMKKLENLIFGSLYSPVTFGKEEEEDGSALFHVDRSAVRQIPDYEDDGDDDEELSDEENGQVVAIRKGEAAWEDEEEKQINVDIASVNRLRKLRKEENEGLISGSEYIARLRAHHAKLNPGTDWARPDSQIVDGESSDDDDTQDGGVDDILRTNEDLVVKSRGNKLCAGRLEYSKLVDANAADPSNGPINSVHFHQNAQLLLTAGLDRRLRFFQIDGKRNTKIQSIFLEDCPIRKAAFLPNGSQVIVSGRRKFFYSFDLEKAKFDKIGPLVGREEKSLEYFEVSQDSNTIAFVGNEGYILLVSTKTKELIGTLKMNGSVRSLAFSEDGKHLLSSGGDGQVYVWDLRTMKCLYKGVDEGSTCGTSLCSSLNGALFASGTDRGIVNIYKKSEFVGGKRKPIKTVDNLTSKIDFMKFNHDAQILAIVSTMNKNSVKLVHVPSLTVFSNWPPPNSTMHYPRCLDFSPGSGFMAMGNAAGKVLLYKLHHYQNA | failed |
| MEGLQRSTISFRRQGSSGIVFDDRLIAELNKSGNNEQKDESQRDEQPKPMSESSEQVKPIDEKDKLRPIKTGGGAPGGIERSRSNGGGAQRHHRTTGRVSPAVDPPSPRISSCGCCSAFGKNPPGKKVNPRKRPPKRRSR | failed |
| MASHVDLLTELQLLEKVPTLERLRAAQKRRAQQLKKWAQYEQDLLHRKRKHERKRSTGGRRKKVSFEASVALLEASLRNDAEEVRYFLKNKVSPDLCNEDGLTALHQCCIDNFEEIVKLLLSHGANVNAKDNELWTPLHAAATCGHINLVKILVQYGADLLAVNSDGNMPYDLCEDEPTLDVIETCMAYQGITQEKINEMRAAPEQKMISDIHCMIAAGQDLDWIDGQGATLLHIAGANGYLRAAELLLDHGVRVDVKDWDGWEPLHAAAFWGQMPMAELLVSHGASLSARTSMDEMPIDLCEEEEFKVLLLELKHKHDVIMKSQLRHKSSLSRRTSSAGSRGKVVRRASLSDRTNLYRKEYEGEAILWQQRSAAEEQRTSTYNGDIRETRTDQENKDPNPRLEKPVLLSEFSTKISRGELDGPVENGLRAPVSTYQYALANGDIWKMHEIPDYSMAYGNPGMADVPPPWSGFKEQSPQTLLELKRQRAAAKLLSHPFLSTHLGSSVARSGEGSSEGKAPLIGGRTSPYSSNGTSVYYTVTSGDPPLLKFKAPMEEMEEKVHGCCRIS | failed |
| MPKSCSASNCTNRYNNKNPEITFHRFPFSKPSVLKQWLDNIGRDDFQPRKHMVICSLHFTPDCFSGLGNRKNLLWNAVPTLFAVPTQDANQNNFRKRLKRALQSASEKWDGITPDGLPLFTEEMHEDTQDCNNNEVADCQSTKVFAAADHTYALSDACTTKARLFNILDANRWLRKRLQAKCRVIKRMKLKLKDAQRELLTLRQQIRHRHVNH | failed |
| MHRFFATRTSRIISVVLSLTFLAGCSLSEIDRIERQTKDSGEIARRISDTNRAKAQPAVRWMDKPWVSLKPLAPVVANPEEKILPPCQITINRPDGMNLPELGQRITGLCGPRVTITPDAFLVLSPANVRSGTSQQMPGSLPAPDGHGRVSLPYLGAQSPSASVMKQSDKHISTLKWQGDLPGLLDTIGSRLGLSWRVNKGNIVFYQLDTRMFQLVILNTKISSSASVTSGSSSSIGSSGGTNSGVSGESSSAQKTSVDLNSDLYGDIKKTIENMLTPSKGRFWLSSASGTLTVTDTPETLERIGRYIDYQNELLNRQVQLNVQVLSVTQSRKEQFGLDWKLVYQSLNNIGASVTGNLINAADNAFSGGLSILDTATGPAAKFSGSELLIKALSQQGNVSLVTELNRATINLTPVPFQISDQTGYIQSSSTTATANAGTTSSMQTGIITTGLFMSMLPYIQENGDVQLQFAFTLSDKPTIQPFFSRDGNTRTDTPAFKLRSLTQTVNMRAGQTLVLTGADQLDSVANKQGAFTPGNFLFGGGHVGSDTRTTLVILITPVLLR | failed |
| MEKRQFMKMKEKLKRACFEFAVSNRYLYNLAKRILDSSPKLQKIKEFLIPKEFLIPAANLSNVFEPETSFQNSGRFFKKIKTCFNGGLPPENLDQDLAIINQRWNVNNEGYQIFSHRKILGPFLVRGRRLVHGEVRRYVDPIFHLQREFNASVVRILNRTTEDLRVLSSKNDAIEGKLNTVEEKISGTVRKDEFKEFKDKIMINHDKLQTDFYELKNSLTKNLEELSSTVESIKAKIDTAEEKISGTDIHTSDYYFLFEEKFRGSRELVKARLRRYIPYFKGCRRVLDIGCGRGEFLELCKEEGIESIGVDINEDMIKFCEGKFNVVKSDAIEYLKSLPDKYLDGVMISHFVEHLDPERLFELLSLCYSKMKYSSYIVIESPNPTSLYSLINFYIDPTHKKPVHPETLKFILEYLGFRDVKIEFFEECEELTKLAKIDSNTVSEEVIRVINENIEKLNRILFGPQDYAIIAKK | failed |
| MKDLIKVQQKLIPDLIDKMYRRFYILSTISQNQPVGRRSLSEHMDMTERVLRSETDMLKKQELIRVKPTGMEITNEGTEVLAQLGEYFNVYSDDHKLASAIKDKFHIKDVHVIPGDSDSNRTVKREMGQQAGQLLEGILYEDAIVSVTGGSTMACVSESIHLLPFNVFFVPARGGLGENVVYQANTIASSMAQQAGGYYTTLYVPDNVSESTYDTLMLEPSVMHTLDKIKQANITIHGIGDALKMAHRRQSSQNVIDNLQHHQAVGEAFGYYFDAQGQIVHKVKTIGLQLEDLENKDFIFAVAGGQSKGEAIKAYLSIAPENTVLITDEAAAKVILQ | not failed |
| MRIGQYQLRNRLIAAPMAGITDRPFRTLCYEMGAGLTVSEMMSSNPQVWESDKSRLRMVHIDEPGIRTVQIAGSDPKEMADAARINVESGAQIIDINMGCPAKKVNRKLAGSALLQYPDVVKSILTEVVNAVDVPVTLKIRTGWAPEHRNCEEIAQLAEDCGIQALTIHGRTRACLFNGEAEYDSIRAVKQKVSIPVIANGDITDPLKARAVLDYTGADALMIGRAAQGRPWIFREIQHYLDTGELLPPLPLAEVKRLLCAHVRELHDFYGPAKGYRIARKHVSWYLQEHAPNDQFRRTFNAIEDASEQLEALEAYFENFA | failed |
| MSSAIERKSLDPSEEPVDEVLQIPPSLLTCGGCQQNIGDRYFLKAIDQYWHEDCLSCDLCGCRLGEVGRRLYYKLGRKLCRRDYLRLFGQDGLCASCDKRIRAYEMTMRVKDKVYHLECFKCAACQKHFCVGDRYLLINSDIVCEQDIYEWTKINGMI | failed |
| NSFDSSNYFYGGNNICIINTKWGKHSGIGGYAEIIDTLVGNFTNISSWAKIGIRDHIHTNFLICDFVYKDNDHIMPPGISSFEDYWVKIGNDVWVGTNVTILRGVEVGDGAVIAAGSVVTKSIPPYAIVGGNPAKFIKWRFPFEVREKLLEIKWWDWDDDLIKEKKDYLQNLVGFDMDKYKIEYRKRKED | failed |
| MKKTLIALMLGTISFTTFANDYLPSGGYETLETRSGQLTFENGFEHGVPTNKTSQKLFDELDYQRAVQGYIWATPIVSFYKWKNDHYQTWGTENGQLVYQAGYESKLGGLTYNTSTPYLIGYMNLNNGPIVINLPDTQLRGAVHNMWQIGKEQMTKPGKYVIYKAGDVAPKVKGATLIAMDTNDFFFGVRLMNKDAKVRSTMMNSIQKGITDINGNQLTNKGIYHVKRGIDHKQPRGMEFWEVVNQAIQANPVQERDRMMMDMLRPLGIEKGKPFIPTPKQQSLLKEAAIVGEAMTKNIDFNKTGRLDHAEYGPKGNPWEIATASTPNQDRNNGMDLDGRAAWFYEAVTNDIAMHGMDNGGWGQVYLDNYYSGEKDHGLDGGKHYTLTIKNPNTYADLFWTITVYNVENRAIIENDLGRADVGSNIKGSVYNKDGSITLHFSPKKPKGVAEANWVQTNEKEGWFVYFRAYSPKKAFVDEEPKTLLPNFEEVK | failed |
| MKKKFIITFILSLALFAGIFWVANKVLDIMELTSKVEFVGSDLGEGNNIEQRVENELLFLVLGLDSDDFSGATTEQNRTDTMILCKVNFDTGKIDILSIPRDSRVMVNGKLDKINHAHHFGGLKLAMKTTRDFLNLDIDYYVRVNFFSVKDIVDALGGVEVDVPVQVDVAEDNVHLKPGKQVLNGKQALQFARFRAGYKEGDVGRVKAQQILIKALVKELTKAKNIAKIPEILEVVKKTVNTNIPFSTIAKLSLKVNNLSEDKINTQIVPGESAYINNTSYFIPDRSKLNAIVKEMFSDYLLNKSGSSQVDTDKNKNNTNTKNNNNKNNNTNNRNNSNNNKNNNNKNNKNNKNNNR | failed |
| MSLAPWRGAIAHALHRNRSLVYARYLQLATVQPNGRPANRTLVFRGFLEDTNQLRFITDTRSAKADQIQQQPWAEICWYFPNTREQFRMAGDLTLISSDDSHQDLQPARIAMWQELSDAARLQFGWPYPGKPRIKESGAFEPSPPDPIEPVPNFCLLLLDPVQVDHLELRGEPQNRWLYHRNDQQEWSSEAINP | not failed |
| MAKHRLDALLVERGLCPSRQQAQRLIRAGEVRVAQAIVDKPGSLVAEDAVIEVAAKPPYVSRGGEKLAKALATFPIALSDRICLDAGISTGGFTDCLLQAGASKVYGIDVGYGQVDWKIRTDPRVLLRERTNIRNLQPTDLYGSDDVWPDLAVADLSFISLTKVLLTLGQLLRSPRELILLVKPQFEVGREKVGKGGVVRDRKDHVTAIAQVLESAQGLGWHGQGLTWSPLLGPAGNVEYLLWLSEAETTWAGDRAAIEALTTEAIATLRAGLEHHHHHH | not failed |
| SNSHDGSNFSNKFSAHKDVVEDLLRKDTVGLVTFQDFRARREYLERCAVAEAACQNASRRAEELETKKKRVKRANLSRLSFGDSLEDQEENSVEFAKITRFASSKKANGVGFNTSGQDIVKEPDVFSPKEEGFFGKQNRKIGMDPGVDTSFLPDRDREQEERLERERLKQQWLSEQERVKNEEIDIIYSIWDGRGQRKLLSCKKGTTIAKFLSIVQQKVSTLKHCKVEDLMFIKEDMIIPHHLSFYDLISMKARGKNGSLFCFDVHEDIRIRNDASVEKDDSHAAKVVERRWYERNKHIYPASMWEVFDVSKNYGRVQKDFFGN | failed |
| MDYLPVEVIGNILSRLGGARDVVIASATCRKWREACRKHLQTLSFNSADWPFYRDLTTNRLEILITQTIFQTMGLQGLSIMMDDANKFSAATVIAWLMYTRDTLRRLSYNVRTTPNVNILEICGRQKLEALVLAHNSITGVEPSFQRFPCLKSLSLSYVSISALDLNLLLSACPMIESLELVSLEIAMSDAQVTIELSSPTLKSVYFDGISLDKFILEADSIEFLHMKDCVLELFELIGNGTLKHFKLDDVSVIHLDIMETSESLEVVDVNHFTMVWPKFYQMISRSQKLKKLRLWDVVFDDDDEIIDVESIAAGFSHLTHLSLSYDLKDGAAHYSLQGTTQLENVTVLELGWTVINDVFSIWVEELLRRCPNLKKLIIYGVVSETKTQGDCQILATFTWSIVQLMRKYIHVEVQFEYE | failed |
| LQSKLSLPKIPNVIECFDISHLSGTATVGSMVQFRGGRPDKHNYRRFKIESVEGIDDFASIAEVVRRRYSRLLEDKHEMPDLIIIDGGKGQLSSAFQELRKLRVKVPIISIAKREEEIYVPGLKSPLPIKKDEKASLFVQEIRDEAHRFAINYNRLLRQKALIQK | failed |
| MVETLGAIAPVFLIILVGFLLRRWKVLSDGFWLPAEKLTYFITFPALLAANLAGADLRGVAWAPVAAVSVGGIFLIAALMLAARSLLARRLAIGDPAFTSVFQGAIRPNTYIGLALATVLFGPFGVTLMALCIAIVVPLVNVLAVACMVRFGHGQSASLSAMARGIATNPLILACLVGIAMNIGGLGLPPVLGPALTILGSAALPIGLLAVGAGLSGVGLRRAAPALLVSSAAKLVLLPGLTLIGALALGMDAPTTALCVLYAALPCSQSSYVLARQMGGDATLMATAITVQTLLSGLSIPVFVLALV | failed |
| MNLESKWLEDFSALAATRSFSQAAERRFVTQPAFSRRIRSLEAALGLVLVNRSRTPVELTAAGQLFLVTARTVVEQLGEVVRHLHHLEGGQGEVMQVAAAHSLALGFFPRWIAQLRNEGLNIATRLVATNVGDAVHALREGGCDLMLAFYDPDAALQMDAEIFPSLHLGHTEMLPVCAADAEGRPLFDMEGEASVPLLAYSTGAFLGRSVNLLLRQRNLRFTTVYETAMADSLKSMALEGLGIAWVPQLSVRAELARGELVVCGGPQWHVPLEIRLYRCALVRKANVRLLWRKLESAAPPESL | failed |
